Laboratory results: the supplement of paper PMC7877785
± gives the uncertainty stated by the source.

Test: self-splicing fitness, log relative to wild type (ln ratio); higher = more splicing; Tetrahymena group I intron in knt gene, E. coli kanamycin selection, DiMSum; sequences stand for … in CUCUCU…GGAGGGAAAAGUUAUCAGGCAUGCACCUGGUAGCUAGUCUUUAAACCAAUAGAUUGCAUCGGUUUAAAAGGCAAGACCGUCAAAUUGCGGGAAAGGGGUCAACAGCCGUUCAGUACCAAGUCUCAGGGGAAACUUUGAGAUGGCCUUGCAAAGGGUAUGGUAAUAAGCUGACGGACAUGGUCCUAACCACGCAGCCAAGUCCUAAGUCAACAGAUCUUCUGUUGAUAUGGAUGCAGUUCACAGACUAAAUGUCGGUCGGGGAAGAUGUAUUCUUCUCAUAAGAUAUAGUCGGACCUCUCCUUAAUGGGAGCUAGCGGAUGAAGUGAUGCAACACUGGAGCCGCUGGGAACUAAUUUGUAUGCGAAAGUAUAUUGAUUAGUUUUGGAGUACUCGUGGUCG
Procedure, shortened: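 DiMSum derived fitness as the error-weighted combination of fold changes across replicates, kanamycin versus no kanamycin, normalised to wild type. E. coli BL21(DE3) held the library, which randomised all eight P1ex-region intron nucleotides within the knt kanamycin-resistance gene on pET-22b(+). Six replicate transformations grew overnight at 37°C or 30°C on LB agar with or without 25 μg/mL kanamycin, also containing 100 μg/mL carbenicillin, 50 μM IPTG and 0.2% rhamnose, and pooled colonies were amplicon-sequenced on an Illumina HiSeq 2500.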

| Sequence | self-splicing fitness (ln) (30 °C) | self-splicing fitness (ln) (37 °C) |
| --- | --- | --- |
| ACAGAGCAAUAUUACGAACG | -2.76 ± 0.19 | -1.45 ± 0.28 |
| AUAUAGCAAUAUUACGUGCU | -1.24 ± 0.092 | -0.807 ± 0.13 |
| UGAUAGCAAUAUUACGGCCU | -0.718 ± 0.097 | -0.609 ± 0.15 |
| UCCCAGCAAUAUUACGGUCA | -0.0309 ± 0.062 | 0.226 ± 0.072 |
| AGUCAGCAAUAUUACGGUGC | -1.68 ± 0.14 | -1.07 ± 0.19 |
| GAGAAGCAAUAUUACGAAGC | -3.21 ± 0.28 | -1.65 ± 0.29 |
| CAAAAGCAAUAUUACGAACG | 0.409 ± 0.072 | 0.483 ± 0.095 |
| CCUGAGCAAUAUUACGUCUA | -2.86 ± 0.31 | -1.69 ± 0.3 |
| GACCAGCAAUAUUACGUAGU | -0.667 ± 0.061 | -0.248 ± 0.077 |
| AUCUAGCAAUAUUACGCAUC | -4.16 ± 0.47 | -2.81 ± 0.4 |
| AAACAGCAAUAUUACGACGG | -3.02 ± 0.092 | -1.13 ± 0.087 |
| CUAGAGCAAUAUUACGAUUA | -2.49 ± 0.23 | -2.26 ± 0.23 |
| GAGCAGCAAUAUUACGGGGU | -2.96 ± 0.16 | -3.18 ± 0.17 |
| UGCUAGCAAUAUUACGGUUA | -0.0068 ± 0.062 | -0.481 ± 0.068 |
| GGAAAGCAAUAUUACGUUGC | -4.27 ± 0.35 | -2.2 ± 0.26 |
| CAGUAGCAAUAUUACGACAG | -0.798 ± 0.093 | -0.214 ± 0.12 |
| GUGUAGCAAUAUUACGUCCU | -0.899 ± 0.15 | -0.148 ± 0.19 |
| CAUCAGCAAUAUUACGCGAC | -4.17 ± 0.29 | -2.92 ± 0.22 |
| AGAAAGCAAUAUUACGGGAC | -3.06 ± 0.26 | -2 ± 0.32 |
| GUUUAGCAAUAUUACGUCCA | -1.53 ± 0.24 | -1.18 ± 0.28 |
| CAUUAGCAAUAUUACGCUUA | -2.22 ± 0.13 | -2.16 ± 0.15 |
| AGGAAGCAAUAUUACGUUAU | -3.44 ± 0.18 | -1.6 ± 0.17 |
| AAGAAGCAAUAUUACGGAAU | -1.67 ± 0.12 | -1.85 ± 0.2 |
| UGCUAGCAAUAUUACGCUUC | -1.65 ± 0.17 | -0.347 ± 0.28 |

| Sequence | self-splicing fitness (ln) (30 °C) | self-splicing fitness (ln) (37 °C) |
| --- | --- | --- |
| CCUCAGCAAUAUUACGACGA | -4.04 ± 0.33 | -2.86 ± 0.3 |
| CACGAGCAAUAUUACGUUAA | -3.25 ± 0.22 | -2.86 ± 0.22 |
| GCCCAGCAAUAUUACGCCGU | -0.724 ± 0.092 | -0.492 ± 0.094 |
| UGAAAGCAAUAUUACGUAAC | – | -1.29 ± 0.25 |
| AAACAGCAAUAUUACGUAUA | -3 ± 0.14 | -1.27 ± 0.12 |
| UCCGAGCAAUAUUACGUUGG | -3.33 ± 0.21 | -1.78 ± 0.24 |
| UCCCAGCAAUAUUACGCCCA | -1.5 ± 0.18 | -0.396 ± 0.14 |
| GACCAGCAAUAUUACGACGC | 0.184 ± 0.074 | -0.35 ± 0.085 |
| UUUUAGCAAUAUUACGGACC | -2.44 ± 0.4 | -0.175 ± 0.33 |
| CCCAAGCAAUAUUACGCAAU | -4.46 ± 0.31 | -1.16 ± 0.17 |
| UACAAGCAAUAUUACGCUUU | -3.73 ± 0.17 | -2.29 ± 0.16 |
| CGAUAGCAAUAUUACGUCAG | -1.39 ± 0.13 | -1.25 ± 0.14 |
| UAGUAGCAAUAUUACGGCGU | -2.15 ± 0.17 | -1.2 ± 0.17 |
| GAUCAGCAAUAUUACGAUGG | -1.22 ± 0.096 | 0.121 ± 0.14 |
| UCCCAGCAAUAUUACGUCUA | -2.5 ± 0.21 | -2.12 ± 0.22 |
| UACAAGCAAUAUUACGCACU | -0.66 ± 0.077 | -0.133 ± 0.09 |
| GUGCAGCAAUAUUACGCCAG | -2.82 ± 0.47 | – |
| UGUGAGCAAUAUUACGCCGC | -2.82 ± 0.34 | -1.2 ± 0.48 |
| GCCAAGCAAUAUUACGGUGU | -1.48 ± 0.049 | -0.507 ± 0.06 |
| CCUUAGCAAUAUUACGUAAG | -1.28 ± 0.097 | -0.938 ± 0.12 |
| UCCUAGCAAUAUUACGUGAC | -3.85 ± 0.2 | -3.03 ± 0.21 |
| UAUCAGCAAUAUUACGUUGC | -3.53 ± 0.18 | -2.37 ± 0.15 |
| GGAAAGCAAUAUUACGAGGG | -3.74 ± 0.17 | -2.54 ± 0.16 |
| CUGAAGCAAUAUUACGUCAC | -2.03 ± 0.11 | -2.73 ± 0.24 |
